In publication PMC10582461, “Self‐Aggregating Tau Fragments Recapitulate Pathologic Phenotypes and Neurotoxicity of Alzheimer's Disease in Mice” (Advanced Science, 2023):

Target: the molecule itself
Experiment: in vitro self-aggregation, non-reducing SDS-PAGE and immunoblot; tau-AC species alone (40-100 µM) in self-assembly buffer (10 mM HEPES pH 7.4, 100 mM NaCl, 1 mM DTT), 37 °C, shaking 250 rpm, no inducers; non-reducing SDS-PAGE, IB and CBB

B1: tau‐AC‐TQDVSK (tau‐AC with the PHF6 motif substituted with hydrophilic residues) (domain or fragment, human, UniProt P10636-8 306-378, looked up)
chain: TQDVSKPVDLSKVTSKCGSLGNIHHKPGGGQVEVKSEKLDFKDRVQSKIGSLDNITHVPGGGNKKIETHKLTF
notes: human tau residues 306-378 of 2N4R (441 residues) with 306VQIVYK311 changed to TQDVSK; numbers count on: 2N4R tau (441 residues); source: E. coli Rosetta 2 (DE3), pET28a, purified
Does B1 bind?
Result: binds
